From patent US20230078265A1, “METHODS AND COMPOSITIONS FOR EDITING NUCLEOTIDE SEQUENCES” (The Broad Institute, Inc., priority 2019, published 2023)

B1: 175-307 deletion: SpCas9 mutation relative to SEQ ID NO: 18 (protein)
chain: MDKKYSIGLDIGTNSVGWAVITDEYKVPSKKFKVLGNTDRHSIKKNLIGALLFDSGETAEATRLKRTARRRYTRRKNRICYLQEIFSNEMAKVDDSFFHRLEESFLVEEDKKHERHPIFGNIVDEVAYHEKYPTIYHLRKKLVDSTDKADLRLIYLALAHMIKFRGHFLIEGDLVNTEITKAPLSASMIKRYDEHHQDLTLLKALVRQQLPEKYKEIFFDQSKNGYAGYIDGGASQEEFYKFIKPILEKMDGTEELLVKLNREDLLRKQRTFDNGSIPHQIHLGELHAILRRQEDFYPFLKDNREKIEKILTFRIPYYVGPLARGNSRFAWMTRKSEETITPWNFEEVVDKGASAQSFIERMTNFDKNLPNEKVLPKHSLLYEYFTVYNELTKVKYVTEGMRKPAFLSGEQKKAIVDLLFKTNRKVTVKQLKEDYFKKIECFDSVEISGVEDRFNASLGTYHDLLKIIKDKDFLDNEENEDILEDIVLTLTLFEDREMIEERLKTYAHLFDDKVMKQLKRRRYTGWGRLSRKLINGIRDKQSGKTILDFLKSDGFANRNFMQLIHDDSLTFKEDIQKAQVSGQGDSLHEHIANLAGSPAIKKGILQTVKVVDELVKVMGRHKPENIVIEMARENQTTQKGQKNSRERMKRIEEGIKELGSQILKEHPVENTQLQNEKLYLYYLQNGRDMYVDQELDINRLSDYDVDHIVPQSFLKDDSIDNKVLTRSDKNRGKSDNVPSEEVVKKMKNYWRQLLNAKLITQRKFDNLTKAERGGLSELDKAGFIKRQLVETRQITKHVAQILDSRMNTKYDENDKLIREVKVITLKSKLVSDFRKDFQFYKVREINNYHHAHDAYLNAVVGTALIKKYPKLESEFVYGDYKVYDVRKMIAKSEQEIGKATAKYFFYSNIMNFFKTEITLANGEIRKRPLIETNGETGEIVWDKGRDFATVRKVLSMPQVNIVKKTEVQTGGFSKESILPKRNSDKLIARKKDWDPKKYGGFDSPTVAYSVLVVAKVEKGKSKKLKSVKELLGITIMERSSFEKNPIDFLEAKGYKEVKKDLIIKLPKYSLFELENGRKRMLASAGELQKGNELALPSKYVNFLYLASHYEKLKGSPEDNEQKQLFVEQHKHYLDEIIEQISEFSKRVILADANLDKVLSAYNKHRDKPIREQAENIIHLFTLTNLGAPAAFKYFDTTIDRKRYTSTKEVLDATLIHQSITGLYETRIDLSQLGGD
modifications: Streptococcus pyogenes
B2: 1024-CFN: intein-split PE with extein residues mutated to Npu-native CFN (protein)
chain: MKRTADGSEFESPKKKRKVIKIATRKYLGKQNVYDIGVERDHNFALKNGFIASNCFNEIGKATAKYFFYSNIMNFFKTEITLANGEIRKRPLIETNGETGEIVWDKGRDFATVRKVLSMPQVNIVKKTEVQTGGFSKESILPKRNSDKLIARKKDWDPKKYGGFDSPTVAYSVLVVAKVEKGKSKKLKSVKELLGITIMERSSFEKNPIDFLEAKGYKEVKKDLIIKLPKYSLFELENGRKRMLASAGELQKGNELALPSKYVNFLYLASHYEKLKGSPEDNEQKQLFVEQHKHYLDEIIEQISEFSKRVILADANLDKVLSAYNKHRDKPIREQAENIIHLFTLTNLGAPAAFKYFDTTIDRKRYTSTKEVLDATLIHQSITGLYETRIDLSQLGGDSGGSSGGSSGSETPGTSESATPESSGGSSGGSSTLNIEDEYRLHETSKEPDVSLGSTWLSDFPQAWAETGGMGLAVRQAPLIIPLKATSTPVSIKQYPMSQEARLGIKPHIQRLLDQGILVPCQSPWNTPLLPVKKPGTNDYRPVQDLREVNKRVEDIHPTVPNPYNLLSGLPPSHQWYTVLDLKDAFFCLRLHPTSQPLFAFEWRDPEMGISGQLTWTRLPQGFKNSPTLFNEALHRDLADFRIQHPDLILLQYVDDLLLAATSELDCQQGTRALLQTLGNLGYRASAKKAQICQKQVKYLGYLLKEGQRWLTEARKETVMGQPTPKTPRQLREFLGKAGFCRLFIPGFAEMAAPLYPLTKPGTLFNWGPDQQKAYQEIKQALLTAPALGLPDLTKPFELFVDEKQGYAKGVLTQKLGPWRRPVAYLSKKLDPVAAGWPPCLRMVAAIAVLTKDAGKLTMGQPLVILAPHAVEALVKQPPDRWLSNARMTHYQALLLDTDRVQFGPVVALNPATLLPLPEEGLQHNCLDILAEAHGTRPDLTDQPLPDADHTWYTDGSSLLQEGQRKAGAAVTTETEVIWAKALPAGTSAQRAELIALTQALKMAEGKKLNVYTDSRYAFATAHIHGEIYRRRGWLTSEGKEIKNKDEILALLKALFLPKRLSIIHCPGHQKGHSAEARGNRMADQAARKAAITETPDTSTLLIENSSPSGGSKRTADGSEFEPKKKRK

Assays:
[1] = system: DNA; settings: mutation relative to canonical SpCas9, SEQ ID NO: 18; cited from earlier work
[2] = system: HEK cells; experiment: Npu intein-split prime editors, plasmid transfection of HEK cells, high-throughput sequencing; format: cell-based; settings: plasmids, split site 1023/1024
Source text: This Example is focused on a PE fusion protein comprising the canonical SpCas9 (SEQ ID NO: 18). The split sites for other Cas9 proteins may be the corresponding same site, or may need to be optimized for each different Cas9 protein. In the instant Example, the prime editor was split between residues 1023 and 1024 of SpCas9 (SEQ ID NO: 18). This is referred to as the “1023/1024” split site.
Prime editors (PEs) exceed the AAV packaging capacity.
It was therefore determined whether mutation from the Cas9-native “SEQ” towards the Npu intein “CFN” sequence altered efficiency of prime editing.

| Molecule | decreased DNA cleavage [1] | prime editing activity compared with full-length PE3 [2] |
| --- | --- | --- |
| B1 | About 50% decreased DNA cleavage | – |
| B2 | – | recapitulates full-length PE3 activity |
